Target: T1, human Galectin-3 (human, UniProt P17931 1-250, limits assumed)
T1 construct: also called Gal-3; Gal3
Experiment: in vitro affinity; method and format not stated

T1 sequence (P17931 whole entry): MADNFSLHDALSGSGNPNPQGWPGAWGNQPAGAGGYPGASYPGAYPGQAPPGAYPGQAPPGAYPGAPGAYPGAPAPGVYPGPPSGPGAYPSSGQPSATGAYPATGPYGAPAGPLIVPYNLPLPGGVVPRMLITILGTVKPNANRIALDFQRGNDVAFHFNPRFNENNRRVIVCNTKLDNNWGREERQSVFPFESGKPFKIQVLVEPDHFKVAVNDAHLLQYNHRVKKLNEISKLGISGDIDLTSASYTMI

Kd: 8.4 nM
B1: TB006 (antibody, human IgG4 S228P, kappa, V domains shown)
VH: QVQLVQSGAEVKKPGASVKVSCKASGYSFTNYYMHWVRQAPGQRLEWMGWIYPGSGNTNYNEKFQGRVTITADTSASTAYMELSSLRSEDTAVYYCSTAPGGFDVWGQGTTVTVSS
VL: DIVMTQTPLSLSVTPGQPASISCKSSKSLLHSDGITYLYWYLQKPGQSPQLLIYRMSNLASGVPDRFSGSGSGTDFTLKISRVEAEDVGVYYCAQMLEFPLTFGQGTKLEIKR
notes: also called anti-Gal3 antibody; humanized IgG4 (S228P) type monoclonal antibody

Source: patent US20260250396A1 (TRUEBINDING, published 2026)
